Experimental findings from PMC10393192, “Structure and DNA-bridging activity of the essential Rec114–Mei4 trimer interface” are described below.

Holding throughout (experiment): EMSA
(In general: In EMSA bound probe runs differently from free probe, usually more slowly.)

The target in one series is T1, Rec114C;Mei4N (Saccharomyces cerevisiae;Saccharomyces …, UniProt P32841;P29467 375-428;1-43, |).
T1 sequence 1: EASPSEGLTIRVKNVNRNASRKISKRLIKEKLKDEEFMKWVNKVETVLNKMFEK
T1 sequence 2: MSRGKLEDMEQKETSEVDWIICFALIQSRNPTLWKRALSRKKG
The settings on record: EMSA: 25 mM Tris-HCl pH 7.4, 100 mM NaCl, 5 ng DNA, 20 min, room temperature, AFM: 25 mM HEPES-NaOH pH 7.4, 5 mM MgCl2, 50 mM NaCl, 10% glycerol, 30 min, RT ….

Series [1] concerns the target T2, Rec114C (Saccharomyces cerevisiae) (UniProt P32841).
T2 sequence: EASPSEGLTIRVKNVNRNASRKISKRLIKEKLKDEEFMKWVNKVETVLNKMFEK
The settings on record: C50, single experiment; main text ~300-400 nM; concentration as dimer; EMSA: 25 mM Tris-HCl pH 7.4, 100 mM NaCl, 5 ng DNA, 20 min, room temperature; AFM: 25 mM HEPES-NaOH pH 7.4, 5 mM MgCl2, 50 mM NaCl, 10% glycerol, 30 min, RT ….

Series [2] concerns Rec114(325-428);Mei4(1-90) (Saccharomyces cerevisiae;Saccharomyces cerevisiae). The settings on record: EMSA: 25 mM Tris-HCl pH 7.4, 100 mM NaCl, 5 ng DNA, 20 min, room temperature; AFM: 25 mM HEPES-NaOH pH 7.4, 5 mM MgCl2, 50 mM NaCl, 10% glycerol, 30 min, RT ….
Series [3] addresses Rec114(386-428);Mei4N (Saccharomyces cerevisiae;Saccharomyces cerevisiae) (UniProt P29467). Conditions: EMSA: 25 mM Tris-HCl pH 7.4, 100 mM NaCl, 5 ng DNA, 20 min, room temperature; AFM: 25 mM HEPES-NaOH pH 7.4, 5 mM MgCl2, 50 mM NaCl, 10% glycerol, 30 min, RT ….
Series [4] concerns the target Rec114(388-428) K399A/R400A;Mei4N (Saccharomyces cerevisiae;Saccharomyces cerevisiae) (UniProt P29467). The settings on record: EMSA: 25 mM Tris-HCl pH 7.4, 100 mM NaCl, 5 ng DNA, 20 min, room temperature; AFM: 25 mM HEPES-NaOH pH 7.4, 5 mM MgCl2, 50 mM NaCl, 10% glycerol, 30 min, RT ….
The target of series [5] is Rec114(388-428) K403A/K407A;Mei4N (Saccharomyces cerevisiae;Saccharomyces cerevisiae) (UniProt P29467). The settings on record: EMSA: 25 mM Tris-HCl pH 7.4, 100 mM NaCl, 5 ng DNA, 20 min, room temperature; AFM: 25 mM HEPES-NaOH pH 7.4, 5 mM MgCl2, 50 mM NaCl, 10% glycerol, 30 min, RT ….
Series [6] concerns the target Rec114(388-428) K417A/K424A;Mei4N (Saccharomyces cerevisiae;Saccharomyces cerevisiae) (UniProt P29467). Conditions: EMSA: 25 mM Tris-HCl pH 7.4, 100 mM NaCl, 5 ng DNA, 20 min, room temperature; AFM: 25 mM HEPES-NaOH pH 7.4, 5 mM MgCl2, 50 mM NaCl, 10% glycerol, 30 min, RT ….
For series [7], the target named is Rec114(388-428) R395A/K396A;Mei4N (Saccharomyces cerevisiae;Saccharomyces cerevisiae) (UniProt P29467). Conditions: EMSA: 25 mM Tris-HCl pH 7.4, 100 mM NaCl, 5 ng DNA, 20 min, room temperature; AFM: 25 mM HEPES-NaOH pH 7.4, 5 mM MgCl2, 50 mM NaCl, 10% glycerol, 30 min, RT ….
Series [8] concerns Rec114(388-428);Mei4(13-43) (Saccharomyces cerevisiae;Saccharomyces cerevisiae). Conditions: EMSA: 25 mM Tris-HCl pH 7.4, 100 mM NaCl, 5 ng DNA, 20 min, room temperature; AFM: 25 mM HEPES-NaOH pH 7.4, 5 mM MgCl2, 50 mM NaCl, 10% glycerol, 30 min, RT ….
Series [9] addresses Rec114(388-428);Mei4N (Saccharomyces cerevisiae;Saccharomyces cerevisiae) (UniProt P29467). The settings on record: EMSA: 25 mM Tris-HCl pH 7.4, 100 mM NaCl, 5 ng DNA, 20 min, room temperature; AFM: 25 mM HEPES-NaOH pH 7.4, 5 mM MgCl2, 50 mM NaCl, 10% glycerol, 30 min, RT ….
For series [10], the target named is Rec114C;Mei4N-ybbR (Saccharomyces cerevisiae;Saccharomyces cerevisiae) (UniProt P32841). Conditions: C50, unlabeled; EMSA: 25 mM Tris-HCl pH 7.4, 100 mM NaCl, 5 ng DNA, 20 min, room temperature; AFM: 25 mM HEPES-NaOH pH 7.4, 5 mM MgCl2, 50 mM NaCl, 10% glycerol, 30 min, RT ….
Series [11] concerns the target Rec114C;Mei4N-ybbR-LD650 (Saccharomyces cerevisiae;Saccharomyces cerevisiae) (UniProt P32841). Conditions: C50, single experiment; EMSA: 25 mM Tris-HCl pH 7.4, 100 mM NaCl, 5 ng DNA, 20 min, room temperature; AFM: 25 mM HEPES-NaOH pH 7.4, 5 mM MgCl2, 50 mM NaCl, 10% glycerol, 30 min, RT ….

Turning to 1000-bp DNA, the results for the K half (with Rec114C;Mei4N (C50); in series [1]) were 80 nM and 300 nM, respectively.
As to 150-bp DNA, the K half was found to be 90 nM in the series with Rec114C;Mei4N; 90 nM in series [2]; 110 nM in [3]; 2000 nM in [4]; 1000 nM in series [5]; 900 nM in [6]. Besides, the K half in series [7] is 1000 nM; in series [8], 100 nM; in series [9], 110 nM; in series [10], 90 nM; in series [11] it was 90 nM.
